{"source": "patent US20170335004A1", "about": "(LA TROBE UNIVERSITY, published 2017)", "key": {"BSA": {"target": "T1, BSA (bovine, UniProt P02769)", "T1 construct": "also called bovine serum albumin", "T1 sequence (P02769 25-607 limits assumed)": "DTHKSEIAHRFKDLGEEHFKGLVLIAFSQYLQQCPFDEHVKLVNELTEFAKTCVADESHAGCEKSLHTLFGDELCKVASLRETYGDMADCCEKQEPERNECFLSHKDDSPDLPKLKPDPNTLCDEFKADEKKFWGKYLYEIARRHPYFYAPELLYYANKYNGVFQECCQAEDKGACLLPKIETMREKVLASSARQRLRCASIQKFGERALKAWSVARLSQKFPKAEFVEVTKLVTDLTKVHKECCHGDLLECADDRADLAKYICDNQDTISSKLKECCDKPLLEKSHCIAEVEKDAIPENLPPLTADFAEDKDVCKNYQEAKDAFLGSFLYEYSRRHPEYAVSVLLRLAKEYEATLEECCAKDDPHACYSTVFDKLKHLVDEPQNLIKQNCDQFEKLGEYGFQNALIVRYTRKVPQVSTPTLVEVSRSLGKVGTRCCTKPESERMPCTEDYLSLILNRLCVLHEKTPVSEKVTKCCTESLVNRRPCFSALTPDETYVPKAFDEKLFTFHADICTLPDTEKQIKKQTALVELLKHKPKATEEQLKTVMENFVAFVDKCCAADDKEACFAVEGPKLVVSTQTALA", "assay": "ELISA of purified hFab 6.5 on a panel of coated antigens, absorbance 450 nm"}, "[1]": {"target": "T2, hFn14-Fc (Fc-tagged ectodomain of human Fn14) (human, UniProt Q9NP84 29-78)", "T2 construct": "also called Fc-tagged hFn14; not shown: Fc tag", "T2 sequence (Q9NP84 29-78)": "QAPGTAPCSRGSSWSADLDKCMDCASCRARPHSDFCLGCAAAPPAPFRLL", "assay": "SPR (ProteOn XPR36), hFab amine-coupled, hFn14-Fc as analyte, Langmuir fit, average of 5 measurements", "experimental": "The affinity of wildtype Fab clone 6.5 and the light chain shuffled mutants was measured by surface Plasmon resonance (SPR) using the ProteOn XPR36TM instrument (BioRad). Individual channels of a six channel GLC chip were coupled with the relevant hFab ligand at 5 μg/ml in 0.1M sodium acetate buffer pH 4.5 using amine coupling according to the manufacturer's instructions. Five dilutions of analyte hFn14-Fc were prepared in PBS containing 0.005% Tween20 (running buffer) and allowed to flow over the coupled hFab at […] flow rate for 500 seconds to evaluate the “on rate” (ka). This was followed by flow with the running buffer for 1200 seconds to evaluate the “off rate” (kd). This process was repeated until the analyte dilution series allowed a good kinetic fit using the Langmuir statistical model for analysing the ka and kd, where the affinity constant (KD) is the kd/ka. The best fit data was analysed using the ProteOn software measured by Chi2, where the lowest value is the best fit of the model to the SPR binding curves."}}, "data": [{"binder": "hFab 6.5 (Fab, V domains shown, Human Fab from a phage display library, kappa light chain, expressed in the E. coli periplasm; also called clone 6.5; wildtype Fab 6.5) VH: QVQLVQSGGGLVKPGGSLRLSCAASGFTFTSYAMSWVRQAPGKGLEWVSAISGSGGSTYYADSVKGRFTISRDNPKNTLYLQMNSLRAEDTAVYYCARVRANYYYGMDVWGQGTLVTVSS VL: LTQSPGTLSLSPGERATLSCRASQSVSSSTLAWYQQKPGQTPRLLIYGASTRATGIPARFSGSGSGTDFTLTISRLEPEDFAVYYCQQYGSSRLTFGGGTKVEIKR", "values": [{"measurement": "binding result", "setting": "BSA", "value": "no binding (tested: 10 ug/ml)"}, {"measurement": "Kd", "setting": "[1]", "value": 22.1, "unit": "nM"}, {"measurement": "koff", "setting": "[1]", "value": 0.00207, "unit": "s⁻¹"}, {"measurement": "kon", "setting": "[1]", "value": 94000, "unit": "M⁻¹ s⁻¹"}]}]}
